# Results reported in the DeepSol protein solubility set.
# Test: soluble on expression in E. coli; label from the status in PepcDB or PDB records
row,Sequence,soluble on expression in E. coli
1,MSLEAILPVPEEKQVDWQKMETYAFVHFGLNTFNDREWGYGDSEPKTFNPTKLDCEQWVKTFVESGMKGVILTAKHHDGFCLWPTQLTEYCIRNTPYKDGKGDIVGELAAACKKYGIKFAVYLSPWDRHQANYGTPEYVDYFHKQLTELMTNYGEVFEVWFDGANGGDGWYGGAKDSRTIDRKTYYNYPRIYEILDKLQPQAIVFSDGGPGCRWVGNENGFAGATNWSFLRAGEVYPGYPKYRELQYGHADGNQWVPAECDVSIRPGWFYHPEEDDRVKTVEQLTDLYYRSVGHNATLLLNFPVDRDGLIHPIDSANAVNFHKNVQKQLAHNLLAGIRPKASDERGGQFSAKAATDESWDTYWATNDGVTAADIEFDFPKTEKVNRMMIQEYIPLGQRVKSFIVEYDKDGKWLPVKLNEETTTVGYKRLLRFETVSTDKLRIRFTDARACLCINNIEAYYAGETADTFTVEAKELKSYPFTLVGVPEEETKKCMDKDKNTTAFVEGDALVIDLGEERTITSFHYLPDQSEYNKGLISSYELSVGTEANAVNRIVAQGEFSNIKNNPILQSVYFTPVKARYLSLKPTKMVTEGETMGFAEIGIQEGHHHHHH,soluble
2,MAGDPMSATETITTNARVLGADPLVKDGFGEEDMLTLVLPYIKTAREGVLRLGELLETYGTYESNGIAFADTEEIWWLKTIGGHNWIARRVPDDAYVTNPNQLGIDHYEFENPDDYLASPDIRDFINKHHLDLTYSNEHFNPRYAFGSQRDKDHHYNTPRARAMLEHHHHHH,not soluble
3,MSLTETCDRFALIGAGPMGLAMAKVMLEQGIAFDGFELHSDVGGLWDIDGPRSTMYESAHLISSKRMTEFTDFPMEEAVAEYPSHRELKRYFHAFAARYGLRDHYRFGAEVLRCEPLGEPGAGWRVIWRDAEGEHTETYAGVMIANGTLSEPNMPTFQGRFDGELIHSSAYRHPSQFDGKRVLIVGAGNSGCDIAVDAIHHGALCDLSMRRGYYFVPKYVFGKPADTLGGMIKLPMWLKRRVDGMILKWFVGDPQKYGFPKPDYQLYESHPVVNSLVLYHAGHGDLRIRPDIDRFDGRRVIFADGSSEEYDMILAATGYKLFYPFIDRDLLNWQGDAPHLYLNALHPERDDLFVLGMIEASGLGWQGRHEQAEMVARYITGLRRGGAAAAELKAAKSAGFERATGGMNYLKLARMAYYVDKATYRGAVTGWIDRLKRAQSEGHHHHHH,soluble
4,MAHHHHHHMSVFAAARQRAAHYANRNPLFAKLNKTHLEYFNCVLREQCPKNKKPGRMLTDPNKIVSFNRDWMNQVEGECPVVLLPTSTQQVAAILRYCQSEKIGIVPQCGNTGLVYGSSALHDEVILSLREMNGDPVVSPQTMSTEAEAGVILQQLQEAAKTHDLLVPITMGSKGSAQIGGAVSTNAGGIHFARYGSMHANVLGLEVVTAQGEVLDMMSTLRKDNAGYDMKHLFIGSEGTLGVVTRVSLKLYPFPRSTQLALFRLTTFESVLELYRLAQEHLSECLSAFEVVDGESLSVTPQEELPFTRTSKSDTFRAGQDFTSAYFCVMVETNGSNAEHDMEKLSRFVEAAECNPRCVSKGDLGESFEPVLSQSLAQTAQLWNLREDTPVRLASAGTIYIFDVSFPLDKFYDIVLHFRKMIYKNGGFDPDEVLVVGYGHFGDGNIHLNVVDRTRKHSDALDAVLFPAVYEFCAAHSGSISAEHGVGVQKKAYLGFSRKPEVIALMRTLKRTMDPNGILNPYKVID,soluble
5,MGSDKIHHHHHHMKMIIGRKIGMTRVFVGNDSVPVTVIKAGPCVVVQKKTVEKDGYNAVQLGFEKAKKVNKPLAGHFKKFGVEPMKILREFRVENPDEYEPGQVIKVDVFEKGEYVDVTGWTKGRGFAGAMKRWGFSGGPKSHGSKFHRELGSVGQHTEPAKIWKGKKMPGRYGNERVTVRNLQVVDIDPENDLLVVKGGVPGARGGLVLIRSAKAPKK,not soluble
6,MSLSRCLPLGQNARVIIIPARLAHAASTQAAAATDDAPNFFQKLAHRFQGVPLKGEAHAPKSMFEDCNKEWSAPEPLPAIPKDFKEHPDRDLVNYPYPARPMYPPKSRLLMMPDSWFTPFQKVTGVSGPYLFFGGLFAFLVNKELWVFEEQGHMTVGWILFYLLVTRTAGYKIDQGLYNGYQERVNFFKGLIQEDLKEAVEFKKTSAKQTESLNSIKESYPTALKESMALQLEATYRKNVQSVATELKRRIDYLKETEESKARVEREQLLKLINSEVDKEFSDRSFKDKYLQNAIQQLKGLNVQL,not soluble
7,GSSHHHHHHGSMLNMWKVRELVDKATNVVMNYSEIESKVREATNDDPWGPSGQLMGEIAKATFMYEQFPELMNMLWSRMLKDNKKNWRRVYKSLLLLAYLIRNGSERVVTSAREHIYDLRSLENYHFVDEHGKDQGINIRQKVKELVEFAQDDDRLREERKKAKKNKDKYVGVSSD,soluble
8,MKIHPLSDVQAKQIGQGTSIWQYVVVLPGAVIGSDCNICSHCFIENAVVIGDRVTIKCGVQIWDGLRVEDDVFIGPNVTFTNDLFPRSKQHPKEFAKTVIQKGASIGANATILAGSTIGRNAMVGAGAVVTKSVPPNAIVVGNPARITGYVSTIPAQQKHSEIEVGENIGTVGQSAIPGVQFVRLPIIPDLRGSLSFAEFGQYLPFIPKRYFLVFDVQSREVRGEHAHKELHQFLVCVKGACSVMVDDGNCREEYILNTPGAALHIPPLVWGVQYKYSPDAVLMVLASDVYKPEDYIRDYDQFIALVKKLEHHHHHH,not soluble
9,MSLLTVVQDQQSSNDDSGVGRSLLDEIVRDGARQMLAAALAAEVAAYIEQFAEHLDEHGRRLVVRNGYHHERDVLTAAGAVTVTAPRVNDRRVDAETGERQRFSSAILPAWSRKSPQMTEVLPLLYLHGLSSGDFSAALEQFLGTGAGLSASKITRLTAQWQDEAKAFADRDLSGTDFVYLWVDGIHLKVRLEQQKLCLLVMIGVRADGRKELVALTDGFRESTESWADLLRSCRRRGMTAPVLAVGDEALGFWKALREVFPDTREQRCWFHKQANVLAALPKSAHPGATAAMREIYNAEDIDKAQVAIKAFEVDYGAKYPKAVAKIVDDADVLLEFYRYPAEHWIHLRTTNPIESTFATVRLRTKVTKGPGSRAAGIAMAYKLIDAAQARWRAVNAPHLVALVRAGAVFHKGKLLEREGHHHHHH,not soluble
10,MGDILAHESELLGLVKEYLDFAEFEDTLKTFSKECKIKGKPLCKTVGGSFRDSKSLTIQKDLVAAFDNGDQKVFFDLWEEHISSSIRDGDSFAQKLEFYLHIHFAIYFLKYSVGRPDKEELDEKISYFKTYLETKGAALSQTTEFLPFYALPFVPNPMVHPSFKELFQDSWTPELKLKLEKFLALISKASNTPKLLTIYKENGQSNKEILQQLHQQLVEAERRSVTYLKRYNKIQADYHNLIGVTAELVDSLEATVSGKMITPEYLQSVCVRLFSNQMRQSLAHSVDFTRPGTASTMLRASLAPVKLKDVPLLPSLDYEKLKKDLILGSDRLKAFLLQALRWRLTTSHPGEQRETVLQAYISNDLLDCYSHNQRSVLQLLHSTSDVVRQYMARLINAFASLAEGRLYLAQNTKVLQMLEGRLKEEDKDIITRENVLGALQKFSLRRPLQTAMIQDGLIFWLVDVLKDPDCLSDYTLEYSVALLMNLCLRSTGKNMCAKVAGLVLKVLSDLLGHENHEIQPYVNGALYSILSVPSIREEARAMGMEDILRCFIKEGNAEMIRQIEFIIKQLNSEELPDGVLESDDDEDEDDEEDHDIMEADLDKDELIQPQLGELSGEKLLTTEYLGIMTNTGKTRRKGLANVQWSGDEPLQRPVTPGGHRNGYPV,not soluble
11,GPGSMAIPPLRASDLSSPSPSIAPQRERTRSVGTRLRTSITRDDAERVLPASSSQVETLARDATTTCEQQLMQEEELCGPSYREVEGRRPSRALSPSGAGDTSGVEDGGRARGREYVEDSDDEDVYNSHVARRIRAFLDSIKAEDFTRNPSPVDVTGMAANGEGIDEEALRQQWLERATVDEARSIAAEAQRELLIVLHDAITLETDLAEMSEDAAVLERAVNHREETVEMLKMQLSIADEYNEELHGAKKEALRKLSDAKTEIALLSQRNATLSKQLHEKEKALQLSLARSASASARTSPPAAERRDEGTITTAELQSALIAATASTGLPNNGSLSTPSSPAQHGECELKGMLRKLQLVCDTLQSTVTAKADLDQQLRQWTMGVGESRADAAACGSASSDAGISQPHGERCAPTDAEQRLLRRRCEDVARCIDSLENDIRMLRAKVRAQQACTDAVEGGSAGRRRSAAEAEAATRPQPVETPGPASASATLPEGPGGSGGCAEPADSNLAFLQRQLDRAQADARRLESELRAEREKSQRQSAAEKKLLENVAYLTRKLRAREALDREARLQRRGEKGGTHGDGGDTADGRRTLLYPHRFSHGDSAGVRRGASTAAGDVCGEGAPTSALRRVNREADAVGMGAATAAARKGRANSQELRQRRESVFAALRDAQRASDERRSSHVVSDTRRSSDVQTSFSPILPTSSSRDAALKASGNAVKSGTRATTPTLTPSRG,not soluble
12,MDDYKRILITKILKNEVTEALGCTEVGLIGYAVSLCNISDPFSIEKIELTLNNGSFKNAYAVGVPNTKKYGILPAVVGGLLGDHKNKLLVFNGIKYSQKLEDFIKERLKIRVINSPLYCGVKIKDNSGNTFESLIKDNHLNVVIPKINNKLISEINGSEKEEYKNLELLDFLEYIDEIPEEIIQLVEKTIYTNNNLIKGDFLNFGNDCLSNMVNKTTSACNTRMIGENMPAMSVAKSGNMGIMATLPIIAYDYSNEQNQEKLIKSILLSVLVTIYATYKSSYLSSMCGCVSKGGMGAVIGLCYYKNGKNIKKLDSAARTFTANLPGIICDGGKVGCALKLASGCFAAYSSLFVDISYENGIVGKNFKECVENISEISKIMGDLDSDIVKIMSKKEI,not soluble
13,MKQVAVISGKGGTGKTTFSATIHALEGGVVADCDVDAPNLHILLKPQILKAEDFIASKKARIMPEKCSSCGLCYDLCRFGAVVAEDGYYVDEKKCEGCAFCFNVCPERAIEMENVKTGDLYVSKTEWGYFVHARLKPGEENTGRLVTEVKNRAKEIAEESNAEFLIVDSAPGVGCPVMASLTGVDAAIIVTEPTVSGLSDMLRILELCEHFRIRPFVVVNKFDLNVNIASEIESYCSENGVEFAGRVPFDKAIPEQIANLNFPFSGKAADKMVEIWKKLREVLLEHHHHHH,soluble
14,MANRCRLKPYNRRQNNACSNRTHTLPANGLRNLRLLDLRTKVTELKHIGGQSTAAIADLAGEMRRLAKKSKMLLKGLWPFLSSTISAFKINQSLFKHYYKTVQLLNCKHRKKNY,not soluble
15,DIELTQTPVSLSASVGETVTITCRASENIYSYLAWYQQKQGKSPQFLVYNAKTLGEGVPSRFSGSGSGTQFSLKINSLLPEDFGSYYCQHHYGTPPLTFGGGTKLEIKREQKLISEEDLM,soluble
16,MGSDKIHHHHHHMECSGLYPRRNRSSHNQSEFQVSFMATELSALPANHPRVTFGKVGVLLVNLGTPDGTDYWPMRRYLAEFLSDKRVIEWSRLYWYPILYGIVLNKRPQKVGKAYEEIWNHERNESYLRTYTRSQGELMAAALKDFPNVVVDWAMRYGQPSIASRIDALKEQGCEKILLFPLYPQYAASTTATVNDKAFEHLMKLRWQPAIRTVPPYHDDPAYIEGLAASVKNHLATLDWEPEMLITSFHGIPQSYFKKGDPYYCHCQKTARLLREALGRTEKNFMITFQSRFGPEEWLQPYTDKTVEKLASEGIKRIAVMNPGFVSDCLETLEEIAGEAGEIFLHNGGEKFTHIPCLNDSTEGMNVLEKVVRRELQGWV,not soluble
17,MGSDKIHHHHHHMKSILLFMIFVVCQLEGKKFSQDNFKVDYNYYLRKQDLHIIKTQNDLSNSWYLPPQKAPKEHSWVDFAKKYLNMMDYLGTYFLPFYHSFTPIFQWYHPNINPYQRNEFKFQISFRVPVFRHILWTKGTLYLAYTQTDWFQIYNDPQSAPMRMMNFMPELIYVYPINFKPFGGKIGNFSEIWIGWQHISNGVGGAQCYQPFNKEGNPENQFPGQPVIVKDYNGQKDVRWGGCRSVSAGQRPVFRLVWEKGGLKIMVAYWPYVPYDQSNPNLIDYMGYGNAKIDYRRGRHHFELQLYDIFTQYWRYDRWHGAFRLGYTYRINPFVGIYAQWFNGYGDGLYEYDVFSNRIGVGIRLNP,not soluble
